From PMC12576456

Key:
[1] = molecular target: YFT1-C^S927D/S1118D (cYFP fusion) (tomato (Solanum lycopersicum)); assay: split reporter (BiFC, NanoBiT); BiFC: nYFP-SlTFT1 with YFT1-C derivatives fused to cYFP, transiently co-transformed into N. benthamiana leaves via Agrobacterium; YFP by confocal microscopy, intensity by ImageJ
[2] = molecular target: YFT1-C^S927A/S1118A (cYFP fusion) (tomato (Solanum lycopersicum)); assay: as above

For nYFP-SlTFT1 (natural protein), the BiFC YFP fluorescence, percent of YFT1-C [1] was 114% and the BiFC YFP fluorescence, percent of YFT1-C [2] was 67%.
